Data: patent US20150351390A1, “COMPOSITIONS AND METHODS FOR AUXIN-ANALOG CONJUGATION” (PIONEER HI-BRED INTERNATIONAL, INC., priority 2012, published 2015)

B1: SmXP_002983845: GH3 protein, accession XP_002983845 (protein, listed as Selaginella moellendorffii)
chain: MENEQLLLEKLESSSWSPGEAQDKVLAEILEKNAATDYFNRHGLRAATKEVFRQRAPVIEYEDIKDEINRIADGEAATLLCANPIADMFTSSGTSGGAHKLFPKVEGHYAVSKYFFDLATALLNRDLPGLRTGKALYFLYVRSGRKTPGGLPAYPALTGYYNSLEFRNRPFDPSNDYTSPLEVILCTDSVQASYCHLLCGLIHARDVTKLGCFFASVFVRSIRCLEAWWQELSRDIRTGTLSERVVDPACREAVEKILRPDPELANVIDEACSSGSLKGIVRKLWPSAKAIDTVVTGAMEQYVGEVDYLTDGLPIASMIYASSESFFGVNLKPLCEPSQISYMFLPETSYYEFLPVARSEEKASREEPVELVDVEQGHEYELVITTNAGLYRYRMGDVLRVEGFHNKAPLFSFVCRTNVLLSIDSDKTDEKELQTAVMNAFAALRNGVTSKEGEAIRLTDYTSYADLSSNPPHYVIYWELSSELHLEPEKAGECCYKMEESLSVVYHRGRMERSIGALELRLVTPGTFNRIADDAASRGGSVSQFKLPRCIKKNATRMLEIVESGVYQQYFSPRAPKY
B2: OsGH3-7: GH3 protein, accession Q654M1 (protein, listed as Oryza sativa)
chain: MALLLPEFDPADVRAGRDLIHRLTADAAGIQRGVLREILSRNSGTEYLRRFLGGAAGDDDDVRDAFKRRVPVSGYEDVKPYVDRVASGGEPSSALLCSDPITCLSRSSGTSGGQQKLLPSTAEELDRKVFFYAVQALVRNMSLHTDHGEDDDGGGGEGMYLMFAFHGDRTLSGLPIQSALTTYYHSRQFQECDIGGFDKCTSPLEAILCPYGEQSMYCQLLCGLLHRCRVDRVGASFAAGLVRGIKFLENHWEEMCFNIRSGQLSDWITHTPLRDAVTGQYLQGSNPALADEIASECARKPWDGIVRRLWPRARYIRTIVTGSMSQYIPILEVYGGGLPLVSPIYASTECAAGINLRPLDPPSHVSYALLPNIAYFEFLEVMDENGEKVQGTTRLDDNLGEVKVVDLVDVKVGRCYELIVTTFAGLYRYRVGDLFTVSGFYNATPLFHFSGRHDVILSIDYEKISEEDLLNAIAETDKFHLRPLGYMLVGSTAYADISTLPGHYILFWELTNTCDSNVAIDIDQTAMEKCCLAVEDHFDEMYRKIRHRGSISALEIRILSHGAFDALMDFFVSRGTSASQYKTPTAIRSKEAMMVLEERVVGRFFSQATPSCRSAEFERR
B3: OsGH3-11: GH3 protein, accession P0C0M3 (protein, listed as Oryza sativa)
chain: MDDHNLDYKGSGALEELEMLTVNAKEAQELILTKILERNQATEYLSKFMNGSTNISAFKRHVPVVTYDKVHPYILRIATGEESSILCGEYILELLRSSGTSRGEPRLMPSILKDLDRRTYLYSLIMPIMNKYISGLGEGKAMYLLFVKAETLTDSGIPVRSVLTSYYKSPHFLHRKHDLYNNYTSPDEVILCPDSQQSMYCQLLCGLVERQHVLRIGAVFASAFLRSISFLEQHWRDLVNDIRIGQLNSSITSPACRLAMLNFLALPNPELADQVEAICSCGSWKGILGRLWPNVKYIEAVLTGTMAQYIPMLEFYGGGAIPFVCTMYASSESYFGVNLSPLCSPADVSYTILPNMAYFEFIPLEDGLRLTDHEEVIENDKLVSLVDVKVGCYYELVVTTFSGLYRYRVGDVLQVTGFYNRAPQFKFICRRNVILSIDSDKTNEEDLHNSVTTAKKILENQNYLLLEYTSYTDISTVPGHYVLFWEIKSTHDERPAPLDAQLLESCCAAVEESLDYVYRRCRAHDRSIGPLEIRLVEAGAFDALMDLLVSHGSSINQYKTPRCIESSLALKLLNSKVIACFFSPQDPECGM
B4: SmXP_002986992: GH3 protein, accession XP_002986992 (protein, listed as Selaginella moellendorffii)
chain: MEDFEAVCKNAVQAQEEALVQILQRNGSCHYLQRFGQPLCLKSFKTQLPIISYDNISPELQQIADHGTSHLLLGCDPILYFSFSSGTSSGKHKILPQTNCGYSLLARAYASSNAYRDEVFPLESTKPIGLHFVYSGEQYKAKSGLLLGAGSTNYYKSEAYNQEAETLATPYEALLAGSDWQQTTYCHLLCGLVQRHKIEFIHATFAYTLSEAFRLLESDWKILCEDISARRVSESKVTDEKLRVPVLKLMERELRGKDSSQVAREISEIFVTSKESRWSGLLPLLWPRAKYVHTVVTGAMEPYIPVLKKYAGDKLAIVGFDYSASEGYLGINMRPATPPEEVVFTLIPYTMFFEFIPVDPEEVPDHQQGETLGFKDLQVGKQYELVVTTFEGLYRYRIGDVVKVTGFHHESPIVAFSYRKNAVLSINAEKVDEQELQKVVMGSAGPLEIANFTSCADFATKERPHYVIYWELKNDGDNSRHEELRDSCNALDRGFNAAYLVGRVDKTLGALELVTVKQGTFEKLMEKAIESGASASQYKTPRCIKSPALLELLDQGAIGRYTSSEDISSLLAEDWKPSVIHGL
B5: AIGH3-9: GH3 protein, accession EFH58389 (protein, listed as Arabidopsis lyrata)
chain: MDVMKLDYNYKGGNALTELERITSKAAEVQDNILCGILERNKDTEYLSKYMKGSKDVVEFKRSVPIITYKDIYPYIQRIANGEDSSLITGHPITEILCSSGTSAGEPKLMPTISEDLDRRTFLYNLIIPIVNKYIPGLDKGKAMYLNFVKAETSTPCGLPIRAVLTSYYKSKHFQCRPYDPFNDLTSPIQTILCEDSNQSMYCQLLAGLIHRHKVMRLGAVFASAFLRAISYLEKKWSQLCEDIRTGRLNPMITDPGCQIAMSCLLTSPDPELASEIEEICSRSSWKGILCHLWPRAKFIEAVVTGSMAQYIPALEFFGQGKIPLVCPMYASSETYFGVNVEPLSKPSDVVFTLLPNMCYFEFIPLGKNGALSFDLDDDEQVPCDKVVDLVNVKLGRYYELVVTTFAGLYRYRIGDVLQVAGFYNEAPQFRFICRRNVVLSIDLDKTNEEDLHRSITLAKKKLGSNAFLAEYTSYADTSSVPGHYVLFWEIQGHLEPKLMEGCCVAVEEELDYIYRQCRTKERSIGALEIRVVKPGTFEKLMDLIISQGGSFNQYKTPRCVKSNSATFKLLNGHVTASFFSPRDPTWVA
B6: AtGH3-9: GH3 protein, accession O82243 (protein, listed as Arabidopsis thaliana)
chain: MDVMKLDHDSVLKELERITSKAAEVQDNILRGILERNKDTEYLSKYMNGSKDVLEFKRAVPIIIYKDIYPYIQRIANGEDSSLITGHSITEILCSSGTSAGEPKLMPTIPEDLDRRTFLYNLIIPIVNKYITGLDKGKAMYLNFVKAETSTPCGLPIRAVLTSYYKSKHFQCRPYDPFNDLTSPIQTILCEDSNQSMYCQLLAGLIHRHKVMRLGAVFASAFLRAISYLEKKWSQLCEDIRTGSLNPMITDPGCQMAMSCLLMSPNPELASEIEEICGRSSWKGILCQLWPKAKFIEAVVTGSMAQYIPALEFFSQGKIPLVCPMYASSETYFGVNVEPLSKPSDVVFTLLPNMCYFEFIPLGKNGTLSFDLDDDEQVPCDKVVDLVNVKLGRYYELVVTTFAGLYRYRIGDVLQVAGFYNGAPQFRFICRRNVVLSIDLDKTNEEDLHRSITLAKKKLGSNAFLAEYTSYADTSSVPGHYVLFWEIQGHLEPKLMEECCVAVEEELDYIYRQCRTKERSIGALEIRVVKPGTFEKLMDLIISQGGSFNQYKTPRCVKSNSATFKLLNGHVMASFFSPRDPTWVP

test: LC-MS assay of GH3 conjugation of IAA with Asp or Glu; format: biochemical; details: conjugation of IAA with Asp by recombinant GH3 protein; IAA-Asp product by LC-MS
Description: (§1) To detect and monitor the formation of acyl conjugates with 2,4-D or dicamba, a sensitive LC-MS method was developed using the respective amino acid conjugate standards. […] The reaction was performed at 30° C., 105 rpm, for 3 hours in buffer containing 20 mM Tris-HCl (pH 8.0), 5 mM MgCl2, 5 mM auxin (IAA, 2,4-D or dicamba), 5 mM ATP, 5 mM Asp or Glu, 1 mM DTT and 44 to 164 μg/mL purified GH3 protein in 100 μL reaction. After 3 hours of reaction, 400 μL 100% MeOH was added to the reaction mixture for protein precipitation. The supernatant was diluted 20× in water and then analyzed by LC-MS (AB Sciex 4000 QTrap coupled with Shimadzu Nexera UHPLC) using a Phenomenex Luna 3 μm Phenyl-Hexyl (00B-4256-Y0) column. The concentration of the conjugates was calculated based on the standards. Kinetic parameters were estimated by fitting initial velocity values to the Michaelis-Menten equation.
(§2) The GH3 superfamily conjugase activity analysis of IAA, 2,4-D or dicamba with Asp or Glu was done using LC-MS to analyze the final conjugate products as described in Example 1. Protein sequences of GH3 homologs (Table 3) were obtained from public databases (NCBI, http://www.ncbi.nlm.nih.gov/) by Blast analysis of AtGH3.17 protein sequence (accession # Q9FZ87). Coding sequences were designed for optimal expression in E. coli based on the protein sequences and synthesized. Synthesized coding sequences along with N-term his-tag coding sequences were cloned into a pET24a-based E. coli expression vector. The E. coli expression vectors were transformed into OverExpress C41(DE3) cells (Lucigen) for protein expression. Recombinant E. coli strains were inoculated into 5 ml LB media supplemented with 40 mg/L kanamycin and cultured overnight at 37° C. The overnight culture (0.5 mL) was inoculated into 50 mL LB medium plus 40 mg/L kanamycin and grown at 30° C. until OD600 reached 0.6. The cultures were induced with 0.2 mM IPTG at 16° C., 230 rpm overnight. Cells were harvested by centrifugation at 7,000 rpm for 10 mins. The cell pellet from 50 mL of cell culture was frozen and thawed twice and then lysed in 800 μL lysis buffer A (150 mM NaCl, 50 mM Tris-HCl pH 8.0, 5 mM MgCl2, 10% glycerol) plus 20 mM imidazole, 1 mM DTT, 0.2 mg/ml lysozyme, 1/200 protease inhibitor cocktail (EMD set3, EDTA free) and 1/2000 endonuclease. Lysate was then centrifuged at 13,000 rpm for 30 min at 4° C. Supernatant was loaded onto 200 μL Ni-NTA columns pre-equilibrated with buffer A with 20 mM imidazole at 4° C. Each column was then washed with (1) 2×800 μL of buffer A with 10 mM imidazole, (2) 2×800 μL of buffer A with 20 mM imidazole and (3) 2×200 μL of buffer A with 50 mM imidazole. Protein was eluted with 200 μL of buffer A with 250 mM imidazole. The concentration was measured by Bradford assay. Purified protein was used in conjugation reaction assays as described in example 1.

Molecule	kcat (hrs−1) IAA-Asp [h⁻¹]
B1	0.000
B2	0.000
B3	0.000
B4	0.000
B5	0.000
B6	0.000

same assay, conditions: conjugation of IAA with Glu by recombinant GH3 protein; IAA-Glu product by LC-MS

Molecule	kcat (hrs−1) IAA-Glu [h⁻¹]
B1	0.000
B2	0.000
B3	0.000
B4	0.000
B5	0.000
B6	0.000

same assay, conditions: result in words

Molecule	IAA conjugation activity with Asp or Glu
B1	IAA-inactive
B2	IAA-inactive
B3	IAA-inactive
B4	IAA-inactive
B5	IAA-inactive
B6	IAA-inactive

test: LC-MS assay of GH3 conjugation of 2,4-D with Asp or Glu; format: biochemical; details: conjugation of 2,4-D with Asp by recombinant GH3 protein; 2,4-D-Asp product by LC-MS; 5 mM 2,4-D substrate
Description: as §1, §2

Molecule	kcat (hrs−1) 2,4-D-Asp [h⁻¹]
B1	0.090
B2	0.000
B3	0.000
B4	0.000
B5	0.000
B6	0.000

same assay, conditions: conjugation of 2,4-D with Glu by recombinant GH3 protein; 2,4-D-Glu product by LC-MS; 5 mM 2,4-D substrate

Molecule	kcat (hrs−1) 2,4-D-Glu [h⁻¹]
B1	0.052
B2	0.028
B3	0.043
B4	0.006
B5	0.015
B6	0.005

same assay, conditions: result in words

Molecule	2,4-D conjugation activity with Asp or Glu
B1	2,4-D conjugases
B2	2,4-D conjugases
B3	2,4-D conjugases
B4	2,4-D conjugases
B5	2,4-D conjugases
B6	2,4-D conjugases
